Laboratory results from article doi:10.1101/2025.04.14.648762, “P-Rex1 Limits the Agonist-Induced Internalisation of GPCRs Independently of its Rac-GEF Activity” (bioRxiv, 2025).

Tests used:
Experiment in all cases: pull-down; 5 pmol P-Rex1 or P-Rex2 protein (2.5 pmol for P-Rex1 mutants) with 5 pmol GST or GST-Grk2 in 20 µl detergent-free buffer (50 mM Hepes pH 7.2, 150 mM NaCl), 1 h on ice; isolated on magnetic glutathione agarose; beads washed in buffer with 1% NP-40; western blot
Conditions in all cases: both partners purified
[1] = target: T1, EE-P-Rex1 (purified recombinant wild type) (human, UniProt Q8TCU6 1-1659)
T1 construct: P-Rex1, human, wild type recombinant protein; also called wild type EE-P-Rex1; source: baculovirus-infected Sf9 cells, purified using the EE tag

GEF-dead EE-P-Rex1 = target: T2, GEF-dead EE-P-Rex1 (human, UniProt Q8TCU6 1-1659, E56A | N238A)
T2 construct: P-Rex1, human, with point mutations E56A and N238A in the DH domain; also called GEF-dead P-Rex1; P-Rex1 E56A N238A; source: baculovirus-infected Sf9 cells, purified using the EE tag

His-P-Rex2 (wild type) = target: T3, His-P-Rex2 (wild type) (human, UniProt Q70Z35 1-1606)
T3 construct: P-Rex2, human, wild type, subcloned into pENTR3C and recombined with pDEST10; also called wild type His-P-Rex2; source: baculovirus-infected Sf9 cells, purified (Ni-NTA agarose, desalting); not shown: His6, N-terminal, kept

[2] = target: T4, GEF-dead His-P-Rex2 (P-Rex2^E30A,N212A) (human, UniProt Q70Z35 1-1606, E30A | N212A)
T4 construct: P-Rex2, human, with alanine mutations at Glu30 and Asn212 in the catalytic DH domain; also called GEF-dead P-Rex2; source: baculovirus-infected Sf9 cells, purified (Ni-NTA agarose, desalting); not shown: His6, N-terminal, kept
T4 sequence (Q70Z35 whole entry E30A/N212A, the tested form may be a part): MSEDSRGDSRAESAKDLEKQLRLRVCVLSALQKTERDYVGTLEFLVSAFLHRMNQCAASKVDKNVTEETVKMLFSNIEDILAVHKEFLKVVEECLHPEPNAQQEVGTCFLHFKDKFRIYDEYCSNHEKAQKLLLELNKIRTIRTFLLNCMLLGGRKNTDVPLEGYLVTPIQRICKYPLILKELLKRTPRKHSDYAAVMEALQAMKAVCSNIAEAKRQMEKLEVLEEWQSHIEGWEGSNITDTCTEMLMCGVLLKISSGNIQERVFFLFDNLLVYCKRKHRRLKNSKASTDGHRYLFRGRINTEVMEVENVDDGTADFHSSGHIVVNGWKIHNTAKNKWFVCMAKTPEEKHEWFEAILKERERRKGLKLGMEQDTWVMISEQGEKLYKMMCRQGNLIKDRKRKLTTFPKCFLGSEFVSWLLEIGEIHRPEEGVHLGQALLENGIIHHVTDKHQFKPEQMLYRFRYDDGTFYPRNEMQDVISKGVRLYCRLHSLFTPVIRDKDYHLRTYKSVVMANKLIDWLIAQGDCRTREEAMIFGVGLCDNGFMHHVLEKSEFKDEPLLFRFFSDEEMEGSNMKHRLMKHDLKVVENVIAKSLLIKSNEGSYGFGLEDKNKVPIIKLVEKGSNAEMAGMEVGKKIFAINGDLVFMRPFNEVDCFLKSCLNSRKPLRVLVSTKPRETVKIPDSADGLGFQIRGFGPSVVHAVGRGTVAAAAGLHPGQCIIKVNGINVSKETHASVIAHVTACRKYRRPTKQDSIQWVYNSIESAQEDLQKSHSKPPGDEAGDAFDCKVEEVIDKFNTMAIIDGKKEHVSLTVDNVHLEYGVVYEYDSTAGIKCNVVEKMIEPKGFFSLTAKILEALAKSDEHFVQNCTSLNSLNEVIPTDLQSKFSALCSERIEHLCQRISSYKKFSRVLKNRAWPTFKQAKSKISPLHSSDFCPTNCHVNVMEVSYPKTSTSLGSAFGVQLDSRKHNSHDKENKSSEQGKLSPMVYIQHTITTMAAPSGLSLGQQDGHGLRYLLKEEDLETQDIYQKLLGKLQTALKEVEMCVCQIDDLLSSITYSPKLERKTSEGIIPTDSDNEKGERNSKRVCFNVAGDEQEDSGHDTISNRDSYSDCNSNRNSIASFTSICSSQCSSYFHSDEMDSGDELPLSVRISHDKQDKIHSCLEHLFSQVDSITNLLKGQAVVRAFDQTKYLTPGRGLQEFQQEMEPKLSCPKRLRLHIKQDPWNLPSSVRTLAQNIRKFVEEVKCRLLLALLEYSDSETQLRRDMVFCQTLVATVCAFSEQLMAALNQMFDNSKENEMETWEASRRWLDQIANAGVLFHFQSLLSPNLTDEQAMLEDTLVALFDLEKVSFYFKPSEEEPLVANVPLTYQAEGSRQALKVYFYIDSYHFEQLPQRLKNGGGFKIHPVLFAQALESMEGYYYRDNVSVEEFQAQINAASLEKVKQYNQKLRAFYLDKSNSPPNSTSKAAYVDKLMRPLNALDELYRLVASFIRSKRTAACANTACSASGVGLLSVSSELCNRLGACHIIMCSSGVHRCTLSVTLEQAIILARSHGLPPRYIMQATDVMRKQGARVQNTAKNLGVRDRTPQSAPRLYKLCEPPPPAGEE

T2 sequence (Q8TCU6 whole entry E56A/N238A, the tested form may be a part): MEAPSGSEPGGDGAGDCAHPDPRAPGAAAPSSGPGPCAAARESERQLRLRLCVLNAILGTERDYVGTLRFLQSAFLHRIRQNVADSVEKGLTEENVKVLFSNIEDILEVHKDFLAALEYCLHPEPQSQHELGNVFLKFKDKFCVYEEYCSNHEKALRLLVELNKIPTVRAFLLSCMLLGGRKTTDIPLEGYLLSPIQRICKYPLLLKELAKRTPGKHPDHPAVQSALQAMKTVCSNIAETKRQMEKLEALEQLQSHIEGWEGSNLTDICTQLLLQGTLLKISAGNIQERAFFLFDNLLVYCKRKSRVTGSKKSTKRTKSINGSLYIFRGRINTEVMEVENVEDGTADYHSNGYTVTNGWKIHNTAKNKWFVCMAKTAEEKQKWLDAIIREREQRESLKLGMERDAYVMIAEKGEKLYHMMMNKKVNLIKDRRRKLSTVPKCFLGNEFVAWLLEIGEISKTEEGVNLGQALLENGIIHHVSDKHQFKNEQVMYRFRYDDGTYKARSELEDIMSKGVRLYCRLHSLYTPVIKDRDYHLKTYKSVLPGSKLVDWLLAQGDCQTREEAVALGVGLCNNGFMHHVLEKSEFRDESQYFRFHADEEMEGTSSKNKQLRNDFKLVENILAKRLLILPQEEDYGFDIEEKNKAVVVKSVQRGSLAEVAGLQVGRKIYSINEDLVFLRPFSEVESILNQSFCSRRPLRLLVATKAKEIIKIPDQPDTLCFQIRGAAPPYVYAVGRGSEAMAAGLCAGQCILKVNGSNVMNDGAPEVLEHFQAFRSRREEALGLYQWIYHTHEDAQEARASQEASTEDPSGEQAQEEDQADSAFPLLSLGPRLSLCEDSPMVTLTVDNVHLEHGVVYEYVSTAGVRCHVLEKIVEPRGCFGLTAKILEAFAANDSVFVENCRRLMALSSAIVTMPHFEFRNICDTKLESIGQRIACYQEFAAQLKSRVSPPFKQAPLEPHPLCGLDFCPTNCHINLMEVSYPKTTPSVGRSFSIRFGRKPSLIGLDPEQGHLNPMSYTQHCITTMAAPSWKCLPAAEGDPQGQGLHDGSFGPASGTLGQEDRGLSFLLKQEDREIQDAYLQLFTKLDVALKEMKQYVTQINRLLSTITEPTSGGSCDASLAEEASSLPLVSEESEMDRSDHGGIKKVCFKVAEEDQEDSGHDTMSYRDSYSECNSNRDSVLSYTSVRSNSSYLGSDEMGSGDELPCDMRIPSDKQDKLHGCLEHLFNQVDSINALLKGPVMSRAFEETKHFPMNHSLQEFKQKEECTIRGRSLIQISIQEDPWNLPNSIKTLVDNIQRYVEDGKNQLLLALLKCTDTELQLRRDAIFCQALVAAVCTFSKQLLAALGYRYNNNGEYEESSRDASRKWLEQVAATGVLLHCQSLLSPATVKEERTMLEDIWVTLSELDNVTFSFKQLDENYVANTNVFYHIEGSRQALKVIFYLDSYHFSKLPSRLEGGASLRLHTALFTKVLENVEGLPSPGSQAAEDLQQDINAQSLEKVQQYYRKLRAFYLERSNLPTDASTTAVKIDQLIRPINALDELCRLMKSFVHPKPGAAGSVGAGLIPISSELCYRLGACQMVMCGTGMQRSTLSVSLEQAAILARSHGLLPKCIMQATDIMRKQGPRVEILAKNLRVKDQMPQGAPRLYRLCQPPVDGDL
T1 sequence (Q8TCU6 whole entry): as the sequence (Q8TCU6 whole entry E56A/N238A, the tested form may be a part) above, with A56E, A238N counted along it
T3 sequence (Q70Z35 whole entry): as the sequence (Q70Z35 whole entry E30A/N212A, the tested form may be a part) above, with A30E, A212N counted along it

binding result [1]: binds | binding result (GEF-dead EE-P-Rex1): binds | binding result (His-P-Rex2 (wild type)): binds | binding result [2]: binds
B1: GST-Grk2 (enzyme, human, UniProt P25098 1-689, looked up)
chain: MADLEAVLADVSYLMAMEKSKATPAARASKKILLPEPSIRSVMQKYLEDRGEVTFEKIFSQKLGYLLFRDFCLNHLEEARPLVEFYEEIKKYEKLETEEERVARSREIFDSYIMKELLACSHPFSKSATEHVQGHLGKKQVPPDLFQPYIEEICQNLRGDVFQKFIESDKFTRFCQWKNVELNIHLTMNDFSVHRIIGRGGFGEVYGCRKADTGKMYAMKCLDKKRIKMKQGETLALNERIMLSLVSTGDCPFIVCMSYAFHTPDKLSFILDLMNGGDLHYHLSQHGVFSEADMRFYAAEIILGLEHMHNRFVVYRDLKPANILLDEHGHVRISDLGLACDFSKKKPHASVGTHGYMAPEVLQKGVAYDSSADWFSLGCMLFKLLRGHSPFRQHKTKDKHEIDRMTLTMAVELPDSFSPELRSLLEGLLQRDVNRRLGCLGRGAQEVKESPFFRSLDWQMVFLQKYPPPLIPPRGEVNAADAFDIGSFDEEDTKGIKLLDSDQELYRNFPLTISERWQQEVAETVFDTINAETDRLEARKKAKNKQLGHEEDYALGKDCIMHGYMSKMGNPFLTQWQRRYFYLFPNRLEWRGEGEAPQSLLTMEEIQSVEETQIKERKCLLLKIRGGKQFILQCDSDPELVQWKKELRDAYREAQQLVQRVPKMKNKPRSPVVELSKVPLVQRGSANGL
notes: G protein-coupled receptor kinase 2 (Grk2), human, recombinant; also called recombinant human GST-Grk2; source: bought: Abcam (ab125620), Sf9 cell-derived recombinant
